Laboratory results reported in patent publication US20250066483A1.

Experiments:
[1] = target: canine PD-L1-His (canine); assay: SPR (Biacore X100), cPD-L1-His captured by anti-histidine antibody on a CM5 chip, canine CD80-Ig as analyte
[2] = target: canine PD-L1-His (canine); assay: SPR (Biacore X100), cPD-L1-His captured by anti-histidine antibody on a CM5 chip, canine PD-1-Ig as analyte

A Kd [1] of 24.3 nM was found for canine CD80-Ig (Fc fusion) in this work.
A Kd [2] of 25.4 nM was found for canine PD-1-Ig (Fc fusion) in this work.
